Assay results from patent publication US5914109.

Columns and labels:
[1] = target: 20-mer V3 peptide of HIVSF2 (HIV-1 isolate SF-2); assay: competition ELISA in solution at equilibrium (Friguet method)
[2] = target: 22-mer V3 peptide of HXB2 (HIV-1 HXB2 (IIIB)); assay: as above
[3] = target: gp120 of HIV-1 isolate RF (HIV-1 isolate RF) (UniProt P04579)
[4] = target: gp120 of HTLV-IIIB (HIV-1 isolate IIIB)
[5] = target: gp120 of HIV-1 isolate WMJ-2 (HIV-1 isolate WMJ-2)
[6] = target: gp120 of HIV-1 isolate DU 7887-7 (HIV-1 isolate DU 7887-7)
[7] = target: gp120 of HIV-1 isolate AL-1 (HIV-1 isolate AL-1)
[8] = target: gp120 of HIV-1 isolate SF-2 (virus) (HIV-1 isolate SF-2) (UniProt P03378)
[9] = target: gp120 of HIVMN (HIV-1 strain MN) (UniProt P05877)
[10] = target: heptapeptide PGRAFYT (pin 13) (HIV-1 strain MN); assay: pin ELISA, heptapeptide on pin, mAb at 10 µg/ml
[11] = target: heptapeptide GRAFYTT (pin 14) (HIV-1 strain MN); assay: pin ELISA, heptapeptide on pin, mAb at 10 µg/ml
[12] = target: heptapeptide HIGPGRA (pin 10) (HIV-1 strain MN); assay: pin ELISA, heptapeptide on pin, mAb at 10 µg/ml
[13] = target: heptapeptide GPGRAFY (pin 12) (HIV-1 strain MN); assay: pin ELISA, heptapeptide on pin, mAb at 10 µg/ml
[14] = target: heptapeptide RAFYTTK (pin 15) (HIV-1 strain MN); assay: pin ELISA, heptapeptide on pin, mAb at 10 µg/ml
[15] = target: heptapeptide IGPGRAF (pin 11) (HIV-1 strain MN); assay: pin ELISA, heptapeptide on pin, mAb at 10 µg/ml
[16] = target: V3-SC peptide (HIV-1 isolate SC); assay: ELISA on V3 peptide coated plates, mAb at 10 µg/ml
[17] = target: V3-CDC4 peptide (HIV-1 isolate CDC4); assay: ELISA on V3 peptide coated plates, mAb at 10 µg/ml
[18] = target: 20-mer V3 peptide of HIVSF2 (HIV-1 isolate SF-2); assay: ELISA on V3 peptide coated plates, mAb at 10 µg/ml
[19] = target: 22-mer V3 peptide of HXB2 (HIV-1 HXB2 (IIIB)); assay: ELISA on V3 peptide coated plates, mAb at 10 µg/ml
[20] = target: V3-WM52 peptide (HIV-1 isolate WM52); assay: ELISA on V3 peptide coated plates, mAb at 10 µg/ml
[21] = target: V3-RF peptide (HIV-1 isolate RF); assay: ELISA on V3 peptide coated plates, mAb at 10 µg/ml
[22] = target: 23-mer peptide of the gp120 V3 loop of the MN strain of HIV-1 (HIV-1 strain MN); assay: ELISA on V3 peptide coated plates, mAb at 10 µg/ml
[23] = target: V3-NY5 peptide (HIV-1 isolate NY5); assay: ELISA on V3 peptide coated plates, mAb at 10 µg/ml
[24] = target: gp120 of HTLV-IIIB (HIV-1 isolate IIIB); remark: listed apart in the source

In the case of human mAb 694-D (antibody), the Kd [1] is reported as 1.8 µM, the Kd [2] is reported as 12 µM and the neutralization endpoint, MT-4 cell killing assay [3] is reported as > 25 µg/mL. For the same substance, the neutralization endpoint, MT-4 cell killing assay [4] was 0.78 µg/mL, the neutralization endpoint, MT-4 cell killing assay [5] was 6.25 µg/mL and the neutralization endpoint, MT-4 cell killing assay [6] was > 25 µg/mL. The neutralization endpoint, MT-4 cell killing assay [7] was 0.04 µg/mL, the neutralization endpoint, MT-4 cell killing assay [8] was 0.04 µg/mL and the neutralization endpoint, MT-4 cell killing assay [9] was 3.13 µg/mL. The ELISA Reactivity (absorbance at 410 nm) (absorbance at 410 nm) [10] was 1.4, the ELISA Reactivity (absorbance at 410 nm) (absorbance at 410 nm) [11] was 1.23 and the ELISA Reactivity (absorbance at 410 nm) (absorbance at 410 nm) [12] was 0.14. For the same substance, the ELISA Reactivity (absorbance at 410 nm) (absorbance at 410 nm) [13] was > 2, the ELISA Reactivity (absorbance at 410 nm) (absorbance at 410 nm) [14] was 0.089 and the ELISA Reactivity (absorbance at 410 nm) (absorbance at 410 nm) [15] was 1.37. The minimum antigen concentration giving positive results (µg/ml of V3 peptide used to coat) [16] was 0.02, the minimum antigen concentration giving positive results (µg/ml of V3 peptide used to coat) [17] was 1 and the minimum antigen concentration giving positive results (µg/ml of V3 peptide used to coat) [18] was 0.01. For the same substance, the minimum antigen concentration giving positive results (µg/ml of V3 peptide used to coat) [19] was 0.1, the minimum antigen concentration giving positive results (µg/ml of V3 peptide used to coat) [20] was 0.6 and the minimum antigen concentration giving positive results (µg/ml of V3 peptide used to coat) [21] was 1. For the same substance, the minimum antigen concentration giving positive results (µg/ml of V3 peptide used to coat) [22] was 0.01, the minimum antigen concentration giving positive results (µg/ml of V3 peptide used to coat) [23] was 1 and the 50% neutralization, CEM-SS syncytium-forming assay, IgG concentration [24] was 0.04 µg/mL. For the same substance, the 90% neutralization, CEM-SS syncytium-forming assay, IgG concentration [24] was 1.4 µg/mL.
